Like-named read-outs stand apart in the source and are kept apart here.
Key:
[1] = biological target: T1, recombinant gp120 of HIV-1 strain IIIb (HIV-1 strain IIIb, UniProt P04578 33-511); experiment: SPR BIAcore, gp120 on chip
T1 construct: domain: gp120; also called IIIb-derived gp120; gp 120 (IIIB strain)

[2] = biological target: T1, recombinant gp120 of HIV-1 strain IIIb; experiment: cell-based or functional assay
[3] = biological target: gp120 glycoprotein of HIV-1 strain MN (HIV-1 strain MN, UniProt P05877 32-513, limits assumed); experiment: cell-based or functional assay
[4] = biological target: T1, recombinant gp120 of HIV-1 strain IIIb; experiment: SPR BIAcore, gp120 on chip; remark: listed apart in the source
From the text: In the assay, the gp120 glycoprotein, isolated from both MN (AgMed, Cambridge, Mass.) and IIIb (American Bio-Technologies) strains of HIV-1 were coated onto gold chips. […] As the mass of the gold chips increases due to the binding of the Fabs to the ligand, the refractive index of the chips increases indicating a coordinate increase in the increase of the mass. Measurements of the "on" rate are made in addition to the "off" rates, the latter of which occurs as the Fabs begin to dissociate from the ligand and the mass coordinately decreases, thereby allowing a measurement of the change of the refractive index. Briefly, the sensor chip was activated for immobilization with N-hydroxysuccinimide an N-ethyl-N'-(3-diethyl aminopropyl) carbodiimide. The proteins, MN-derived or IIIb-derived gp120, were coupled to the surface by injection of 50 ul of a 50 ug/ml sample. Excess activated esters were quenched with 15 ul ethanolamine, 1 M pH 8.5. Typically, 4000 resonance units were immobilized. Binding of Fab fragments to immobilized gp120 was studied by injection of Fab in a range of concentrations (0.5 to 10 ug/ml) at a flow rate of 5 ul/minute. The association was monitored as the increase in resonance units per unit time. Dissociation measurements were acquired following the end of the association phase but with a flow rate of 50 ul/minute. […]

[5] = biological target: T1, recombinant gp120 of HIV-1 strain IIIb; experiment: SPR BIAcore, gp120 on chip; remark: listed apart in the source
[6] = biological target: T1, recombinant gp120 of HIV-1 strain IIIb; experiment: SPR BIAcore, gp120 on chip; remark: listed apart in the source
From the text: (§1) As the mass of the gold chips increases due to the binding of the Fabs to the ligand, the refractive index of the chips increases indicating a coordinate increase in the increase of the mass. Measurements of the "on" rate are made in addition to the "off" rates, the latter of which occurs as the Fabs begin to dissociate from the ligand and the mass coordinately decreases, thereby allowing a measurement of the change of the refractive index. Briefly, the sensor chip was activated for immobilization with N-hydroxysuccinimide an N-ethyl-N'-(3-diethyl aminopropyl) carbodiimide. The proteins, MN-derived or IIIb-derived gp120, were coupled to the surface by injection of 50 ul of a 50 ug/ml sample. Excess activated esters were quenched with 15 ul ethanolamine, 1 M pH 8.5. Typically, 4000 resonance units were immobilized. Binding of Fab fragments to immobilized gp120 was studied by injection of Fab in a range of concentrations (0.5 to 10 ug/ml) at a flow rate of 5 ul/minute. The association was monitored as the increase in resonance units per unit time. Dissociation measurements were acquired following the end of the association phase but with a flow rate of 50 ul/minute. The binding surface was regenerated with HCl, 1M NaCl, pH 3 and remained active for 20–40 measurements. […] Equilibrium association and dissociation constants were deduced from the rate constants.
(§2) The soluble composite Fabs were then analyzed for binding affinity to gp120 strain IIIB.

[7] = biological target: T1, recombinant gp120 of HIV-1 strain IIIb; experiment: calculated as ln2/Koff from SPR
Method: as §2
In addition, the half-life of the binding of the gp120-reactive Fabs to gp120 can be obtained by dividing the natural log ($\ln_2$) with the $Koff$ rate constant, thereby obtaining a further parameter of the nature of the interaction.

[8] = biological target: T1, recombinant gp120 of HIV-1 strain IIIb; experiment: SPR BIAcore, gp120 on chip (summary table)
[9] = biological target: T1, recombinant gp120 of HIV-1 strain IIIb; experiment: SPR BIAcore, gp120 on chip; remark: listed apart in the source
From the text: as §1

[10] = biological target: T1, recombinant gp120 of HIV-1 strain IIIb; experiment: SPR BIAcore, gp120 on chip; remark: listed apart in the source
From the text: as §1
The soluble A–D series Fabs were then analyzed for binding affinity to gp120 strain IIIB.

[11] = biological target: T1, recombinant gp120 of HIV-1 strain IIIb; experiment: SPR BIAcore, gp120 on chip; remark: listed apart in the source
Method: Briefly, the sensor chip was activated for immobilization with N-hydroxysuccinimide an N-ethyl-N'-(3-diethyl aminopropyl) carbodiimide. The proteins, MN-derived or IIIb-derived gp120, were coupled to the surface by injection of 50 ul of a 50 ug/ml sample. Excess activated esters were quenched with 15 ul ethanolamine, 1 M pH 8.5. Typically, 4000 resonance units were immobilized. Binding of Fab fragments to immobilized gp120 was studied by injection of Fab in a range of concentrations (0.5 to 10 ug/ml) at a flow rate of 5 ul/minute. The association was monitored as the increase in resonance units per unit time. Dissociation measurements were acquired following the end of the association phase but with a flow rate of 50 ul/minute. The binding surface was regenerated with HCl, 1M NaCl, pH 3 and remained active for 20–40 measurements. […] Equilibrium association and dissociation constants were deduced from the rate constants.

B1: Fab 3b3 (Fab, V domains shown)
VH: LEQSGAEVKKPGASVKVSCQASGYRFSNFTVHWVRQAPGQRFEWMGWINPYNGNKEFSAKFQDRVTFTADTSANTAYMELRSLRSADTAVYYCARVGEWGWDDSPQDNYYMDVWGKGTTVIVSS
VL: ELTQSPGTLSLSPGERATFSCRSSHSIRSRRVAWYQHKPGQAPRLVIHGVSNRASGISDRFSGSGSGTDFTLTITRVEPEDFALYYCQVYGASSYTFGQGTKLERKR
[1]
  Ka: 1.3e+09 M⁻¹
[2]
  IC50 (M), syncytium neutralization assay, HIV-1 IIIb: 9.4e-10 M
  Neutralization titer (ng/ml), syncytium assay, HIV-1 IIIb: 47 ng/mL
[3]
  IC50 (M^-1), syncytium neutralization assay, HIV-1 MN on CEM-SS cells: 9.02e+09 M⁻¹
  Neutralization Titer (ng/ml), syncytium assay, HIV-1 MN: 5.5 ng/mL
[4]
  Kd: 770 pM

B2: composite Fab H31/L42-1 (Fab, V domains shown)
VH: LEQSGAEVKKPGASVKVSCQASGYRFSHFTVHWVRQAPGQRFEWHGWINPYNGNKEFSAKFQDRVTFTADTSANTAYMELRSLRSADTAVYYCARVGEWGWEMFRYDNYYMDVWGKGTTVIVSS
VL: ELTQSPGTLSLSPGERATFSCRSSHQLDGSRVAWYQHKPGQAPRLVIHGVSNRASGISDRFSGSGSGTDFTLTITRVEPEDFALYYCQQYGWPFYTFGQGTKLERKR
notes: also called Fab of plasmid pPho-H31/L42-1 (ATCC 69691)
[5]
  koff: 1.75e-07 s⁻¹
  kon: 67300 M⁻¹ s⁻¹
[6]
  Fold Increase of Mutant Kd Compared to MT4 Kd: 2430 fold
  Ka: 3.85e+11 M⁻¹
  Kd: 2.59 pM
[7]
  half-life of binding: 44.5 days
[8]
  Kd: 2.59 pM

B3: Fab 3b4 (Fab, V domains shown)
VH: LEQSGAEVKKPGASVKVSCQASGYRFSNYTLIWVRQAPGQRFEWMGWINPYNGNKEFSAKFQDRVTFTADTSANTAYMELRSLRSADTAVYYCARVGPWNWDSPQDNYYMDVWGKGTTVIVSS
VL: ELTQSPGTLSLSPGERATFSCRSSHSIRSRRVAWYQHKPGQAPRLVIHGVSNRASGISDRFSGSGSGTDFTLTITRVEPEDFALYYCQVYGASSYTFGQGTKLERKR
[3]
  IC50 (M^-1), syncytium neutralization assay, HIV-1 MN on CEM-SS cells: 2.57e+09 M⁻¹
  Neutralization Titer (ng/ml), syncytium assay, HIV-1 MN: 19.4 ng/mL

B4: Fab H4L3-3 (Fab, V domains shown)
VH: LEQSGAEVKKPGASVKVSCQASGYRFSNFTVHWVRQAPGQRFEWMGWINPYNGNKEFSAKFQDRVTFTADTSANTAYMELRSLRSADTAVYYCARVGEWGWDDSPQDNYYMDVWGKGTTVIVSS
VL: ELTQSPGTLSLSPGERATFSCRSSHSIRSRRVAWYQHKPGQAPRLVIHGVSNRASGISDRFSGSGSGTDFTLTITRVEPEDFALYYCQVYGGSAYTFGQGTKLERK
[9]
  Fold Increase of Mutant Kd Compared to MT4 Kd: 1.9 fold
  Kd: 3310 pM

B5: Fab B (Fab, V domains shown)
VH: LEQSGAEVKKPGASVKVSCQASGYRFSNFTVHWVRQAPGQRFEWMGWINPYNGNKEFSAKFQDRVTFTADTSANTAYMELRSLRSADTAVYYCARVGEWGWDDSPQDNYYMDVWGKGTTVIVSS
VL: ELTQSPGTLSLSPGERATFSCRSSHTVYRDRVAWYQHKPGQAPRLVIHGVSNRASGISDRFSGSGSGTDFTLTITRVEPEDFALYYCQVYGASSYTFGQGTKLERKR
[10]
  Fold Increase of Mutant Kd Compared to MT4 Kd: 5.7 fold
  Kd: 1100 pM

B6: Fab H4H1-5 (Fab, V domains shown)
VH: LEQSGAEVKKPGASVKVSCQASGYRFSHFTIMWVRQAPGQRFEWMGWINPYNGNKEFSAKFQDRVTFTADTSANTAYMELRSLRSADTAVYYCARVGPYSWDDSPQDNYYMDVWGKGTTVIVSS
VL: ELTQSPGTLSLSPGERATFSCRSSHSIRSRRVAWYQHKPGQAPRLVIHGVSNRASGISDRFSGSGSGTDFTLTITRVEPEDFALYYCQVYGASSYTFGQGTKLERKR
[11]
  Fold Increase of Mutant Kd Compared to MT4 Kd: 2.57 fold
  Kd: 2450 pM

B7: Fab H4L3-4 (Fab, V domains shown)
VH: LEQSGAEVKKPGASVKVSCQASGYRFSNFTVHWVRQAPGQRFEWMGWINPYNGNKEFSAKFQDRVTFTADTSANTAYMELRSLRSADTAVYYCARVGEWGWDDSPQDNYYMDVWGKGTTVIVSS
VL: ELTQSPGTLSLSPGERATFSCRSSHSIRSRRVAWYQHKPGQAPRLVIHGVSNRASGISDRFSGSGSGTDFTLTITRVEPEDFALYYCQKYGGGTYTFGQGTKLERKR
[9]
  Fold Increase of Mutant Kd Compared to MT4 Kd: 25.7 fold
  Kd: 243 pM
[8]
  Kd: 243 pM

B8: Fab A (Fab, V domains shown)
VH: LEQSGAEVKKPGASVKVSCQASGYRFSNFTVHWVRQAPGQRFEWMGWINPYNGNKEFSAKFQDRVTFTADTSANTAYMELRSLRSADTAVYYCARVGEWGWDDSPQDNYYMDVWGKGTTVIVSS
VL: ELTQSPGTLSLSPGERATFSCRSSHKEFGRRVAWYQHKPGQAPRLVIHGVSNRASGISDRFSGSGSGTDFTLTITRVEPEDFALYYCQVYGASSYTFGQGTKLERKR
[10]
  Fold Increase of Mutant Kd Compared to MT4 Kd: 1.3 fold
  Kd: 4700 pM

B9: Fab 3b1 (Fab, V domains shown)
VH: LEQSGAEVKKPGASVKVSCQASGYRFSNFTLMWVRQAPGQRFEWMGWINPYNGNKEFSAKFQDRVTFTADTSANTAYMELRSLRSADTAVYYCARVGQWNWDDSPQDNYYMDVWGKGTTVIVSS
VL: ELTQSPGTLSLSPGERATFSCRSSHSIRSRRVAWYQHKPGQAPRLVIHGVSNRASGISDRFSGSGSGTDFTLTITRVEPEDFALYYCQVYGASSYTFGQGTKLERKR
[2]
  IC50 (M), syncytium neutralization assay, HIV-1 IIIb: 4.4e-10 M
  Neutralization titer (ng/ml), syncytium assay, HIV-1 IIIb: 22 ng/mL
[3]
  IC50 (M^-1), syncytium neutralization assay, HIV-1 MN on CEM-SS cells: 5.42e+09 M⁻¹
  Neutralization Titer (ng/ml), syncytium assay, HIV-1 MN: 9.2 ng/mL

B10: Fab H4H1-3 (Fab, V domains shown)
VH: LEQSGAEVKKPGASVKVSCQASGYRFSHFTLHWVRQAPGQRFEWMGWINPYNGNKEFSAKFQDRVTFTADTSANTAYMELRSLRSADTAVYYCARVGPYSWDDSPQDNYYMDVWGKGTTVIVSS
VL: ELTQSPGTLSLSPGERATFSCRSSHSIRSRRVAWYQHKPGQAPRLVIHGVSNRASGISDRFSGSGSGTDFTLTITRVEPEDFALYYCQVYGASSYTFGQGTKLERKR
[11]
  Fold Increase of Mutant Kd Compared to MT4 Kd: 3.15 fold
  Kd: 2000 pM

B11: Fab H4L3-2 (Fab, V domains shown)
VH: LEQSGAEVKKPGASVKVSCQASGYRFSNFTVHWVRQAPGQRFEWMGWINPYNGNKEFSAKFQDRVTFTADTSANTAYMELRSLRSADTAVYYCARVGEWGWDDSPQDNYYMDVWGKGTTVIVSS
VL: ELTQSPGTLSLSPGERATFSCRSSHSIRSRRVAWYQHKPGQAPRLVIHGVSNRASGISDRFSGSGSGTDFTLTITRVEPEDFALYYCQQYGWPFYTFGQGTKLERKR
[9]
  Fold Increase of Mutant Kd Compared to MT4 Kd: 45.3 fold
  Kd: 138 pM
[8]
  Kd: 138 pM

B12: Fab H4H1-1 (Fab, V domains shown)
VH: LEQSGAEVKKPGASVKVSCQASGYRFSHFTVHWVRQAPGQRFEWMGWINPYNGNKEFSAKFQDRVTFTADTSANTAYMELRSLRSADTAVYYCARVGPYSWDDSPQDNYYMDVWGKGTTVIVSS
VL: ELTQSPGTLSLSPGERATFSCRSSHSIRSRRVAWYQHKPGQAPRLVIHGVSNRASGISDRFSGSGSGTDFTLTITRVEPEDFALYYCQVYGASSYTFGQGTKLERKR
[11]
  Fold Increase of Mutant Kd Compared to MT4 Kd: 3.7 fold
  Kd: 1700 pM

B13: Fab D (Fab, V domains shown)
VH: LEQSGAEVKKPGASVKVSCQASGYRFSNFTVHWVRQAPGQRFEWMGWINPYNGNKEFSAKFQDRVTFTADTSANTAYMELRSLRSADTAVYYCARVGEWGWDDSPQDNYYMDVWGKGTTVIVSS
VL: ELTQSPGTLSLSPGERATFSCRSSHQLDGSRVAWYQHKPGQAPRLVIHGVSNRASGISDRFSGSGSGTDFTLTITRVEPEDFALYYCQVYGASSYTFGQGTKLERKR
[8]
  Kd: 220 pM
[10]
  Fold Increase of Mutant Kd Compared to MT4 Kd: 28.6 fold
  Kd: 220 pM

— patent US6395275 (Scripps Research, dated 2002)
